Data reported in patent US20230220057A1 (STAIDSON BEIJING BIOPHARMACEUTICALS, published 2023).
Read-outs that look alike come from different tables or passages of the source.

Experiments:
human NGF-Fc4 (IgG4-Fc) [1] = target: T1, human NGF-Fc4 (IgG4-Fc) (human, UniProt P01138 122-241, limits assumed); test: competition ELISA: antibody pre-incubated with human NGF-Fc4, binding to coated p75-Fc
T1 construct: not shown: human IgG4 Fc
Procedure: p75 inhibition ELISA assay: The p75 inhibition assay was designed to identify anti-NGF antibodies that were capable of inhibiting NGF binding to p75. In this assay, human p75-Fc (IgG1-Fc, Sinobiological) was coated at 1 μg/mL in the 96-well plates and incubated overnight at 4° C. Anti-NGF antibodies, from supernatants directly or after purified, in different dilutions, were pre-incubated with human NGF-Fc4 (IgG4-Fc) at a final concentration of 350 ng/mL for 2 hours in 37° C. A total of 50 μl of the reaction mixtures were then transferred into the p75-Fc coated 96-well plates and incubated in room temperature for 2 hrs. After washing, a secondary mouse anti-human IgG4-AP (Southern biotech) was added at a dilution of 1:1000. After 1 hour in room temperature, the plates were washed, and after adding PNPP substrate, ODs at 405 nm were read.
(§1) p75 inhibition ELISA assay: The optimized anti-NGF antibodies Ab4, Ab61, and the reference antibody Tanezumab, a humanized antibody from mouse hybridoma were further analyzed for their abilities to block NGF binding to its receptor p75. P75 inhibition assay was performed as described in Example 1.

human NGF (R&D system) [2] = target: T2, human NGF (R&D system) (human, UniProt P01138 122-241); test: cell-based or functional assay
T2 sequence (P01138 122-241 limits assumed): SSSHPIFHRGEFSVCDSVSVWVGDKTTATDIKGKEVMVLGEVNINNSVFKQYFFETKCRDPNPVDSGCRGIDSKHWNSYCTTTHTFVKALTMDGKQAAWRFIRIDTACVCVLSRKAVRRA

human NGF (R&D system) [3] = target: T2, human NGF (R&D system); test: cell-based or functional assay; remark: listed apart in the source
[4] = target: recombinantly produced human-NGF (human, UniProt P01138 122-241, limits assumed); test: ELISA, human NGF coated, IgG titrated
Sequence of recombinantly produced human-NGF (P01138 122-241 limits assumed): as above
Procedure, shortened: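 Plates coated overnight at 4 °C with recombinant human NGF at 1 μg/ml, blocked with PBS/1% BSA. Serially diluted purified antibodies or 1:1 supernatants bound 2 h at 37 °C; detection with AP anti-human IgG Fc (1:3000, 1 h RT), PNPP substrate, OD 405 nm.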

human NGF (R&D system) [5] = target: T2, human NGF (R&D system); test: cell-based or functional assay; remark: listed apart in the source
human NGF-Fc4 (IgG4-Fc) [6] = target: T1, human NGF-Fc4 (IgG4-Fc); test: competition ELISA: antibody pre-incubated with human NGF-Fc4, binding to coated TrkA-Fc
Procedure: TrkA inhibition ELISA assay: The TrkA inhibition ELISA assay was designed to identify the anti-NGF antibodies that have the capability of blocking NGF binding to its receptor TrkA. In this assay, human TrkA-Fc (IgG1-Fc, Sinobiological) was coated at 1 μg/ml in the 96-well plates and incubated overnight at 4° C. Antibodies, from cell culture supernatants or after purified, in different dilutions, were pre-incubated with human NGF-Fc4 (IgG4-Fc) at a final concentration of 70 ng/mL for 2 hours in 37° C. A total of 50 μl of the reaction mixtures were then transferred into the TrkA-Fc coated 96-well plates and incubated in room temperature for 2 hours. After washing, a secondary mouse anti-human IgG4-AP (Southern biotech) was added at a dilution of 1:1000 After one hour in room temperature, the plates were washed, and after adding PNPP substrate, ODs at 405 nm were read.
as §1, with “TrkA” for “p75”, “Ab6, Ab10, Ab16, Ab36, Ab37, Ab44, Ab45, Ab46, Ab47, Ab48, Ab49, Ab52, Ab54, Ab55, Ab56, Ab57, Ab58, Ab59, Ab60, Ab61” for “Ab61,”, “Tanezumab (Pfizer),” for “Tanezumab,”, “TrkA. TrkA” for “p75. P75”

NT4 = target: T3, NT4 (UniProt P34130 81-210); test: ELISA
T3 construct: also called neurotrophin-4
T3 sequence (looked up): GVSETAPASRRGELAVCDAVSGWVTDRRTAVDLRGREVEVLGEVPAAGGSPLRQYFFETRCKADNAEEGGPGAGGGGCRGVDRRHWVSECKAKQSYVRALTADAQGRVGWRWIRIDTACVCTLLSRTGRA

BDNF = target: T4, BDNF (UniProt P23560 129-247); test: ELISA
T4 construct: also called brain-derived neurotrophic factor
T4 sequence (looked up): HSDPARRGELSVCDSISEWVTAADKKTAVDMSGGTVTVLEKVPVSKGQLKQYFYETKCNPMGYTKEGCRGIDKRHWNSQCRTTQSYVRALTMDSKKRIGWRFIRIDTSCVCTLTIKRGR

NT3 = target: T5, NT3 (UniProt P20783 139-257); test: ELISA
T5 construct: also called neurotrophin-3
T5 sequence (looked up): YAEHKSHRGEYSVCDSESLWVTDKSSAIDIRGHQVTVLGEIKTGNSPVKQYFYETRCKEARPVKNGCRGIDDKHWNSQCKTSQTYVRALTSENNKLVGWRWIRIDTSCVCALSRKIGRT

human NGF (R&D system) [7] = target: T2, human NGF (R&D system); test: cell-based or functional assay; remark: listed apart in the source

T1 sequence (P01138 122-241 limits assumed): as the sequence (P01138 122-241 limits assumed) above

Binder | IC50 (human NGF-Fc4 (IgG4-Fc) [1]) [ng/mL] | TF1 Cell Proliferation Inhibition Assay IC50 (human NGF (R&D system) [2]) [nM] | ERK1/2 Signaling Pathway Inhibition Assay IC50 (PC12 cells) (human NGF (R&D system) [3]) [nM] | EC50 [4] [ng/mL] | Chicken DRG Neurite Outgrowth Inhibition Assay IC50 (human NGF (R&D system) [5]) [nM] | IC50 (human NGF-Fc4 (IgG4-Fc) [6]) [ng/mL] | binding result (NT4) | binding result (BDNF) | binding result (NT3) | Chicken DRG Neurite Outgrowth Inhibition Assay IC50 (human NGF (R&D system) [7]) [nM] | TF1 Cell Proliferation Inhibition Assay IC50 (human NGF (R&D system) [7]) [nM]
Ab4 (antibody, human IgG1, V domains shown) VH: EVQLVQSGAEVKKPGATVKISCKVSGYTFITYWISWVQQAPGKGLEWMGAIDPSDSDARYSPSFQGRVTITADTSTDTAYMELSSLRSEDTAVYYCAKSDPGYSGYSLLYGFDSWGQGTLVTVSS VL: DVVMTQSPLSLPVTLGQPASISCRSSQSLVQRNGNTYLSWYQQRPGQSPRLLIYQVSNRYSGVPDRFSGSGSGTDFTLKISRVEAEDVGVYYCGQGAHLPLTFGQGTKVEIK | 481 | 0.174 | 0.131 | 0.0124 | 0.0663 | 74.6 | no binding (tested: 100 µg/mL) | no binding (tested: 100 µg/mL) | no binding (tested: 100 µg/mL) |  | 
Ab61 (antibody, human IgG1, V domains shown) VH: EVQLVQSGAEVKKPGATVKISCKVSGYTFITYWISWVQQAPGKGLEWMGAIDPSDSDARYSPSFQGRVTITADTSTDTAYMELSSLRSEDTAVYYCAKSDPGYSGYSLLYGFDSWGQGTLVTVSS VL: DVVMTQSPLSLPVTLGQPASISCRSSQSLVQRNANTYLSWYQQRPGQSPRLLIYQVSNRYSGVPDRFSGSGSGTDFTLKISRVEAEDVGVYYCGQGAHLPLTFGQGTKVEIK | 577 | 0.346 | 0.175 | 0.014 | 0.0786 | 70 |  |  |  |  | 
Ab54 (antibody, human IgG1, V domains shown) VH: EVQLVQSGAEVKKPGESLKISCKISGYSFITYWISWVRQMPGKGLEWMGAIDPSDSDARYSPSFQGQVTISADKSISTAYLQWSSLKASDTAMYYCAKSDPGYSGYSLLYGFDSWGQGTLVTVSS VL: DVVMTQSPLSLPVTLGQPASISCRSSQSLVQRNGNTYLSWYQQRPGQSPRLLIYQVSNRYSGVPDRFSGSGSGTDFTLKISRVEAEDVGVYYCGQGAHLPLTFGQGTKVEIK |  | 0.183 |  | 0.0257 |  | 70.2 | no binding (tested: 100 µg/mL) | no binding (tested: 100 µg/mL) | no binding (tested: 100 µg/mL) |  | 
Tanezumab (antibody, part only; not given: constant regions, V domains shown, not shown: another chain or arm of the molecule) VH: QVQLQESGPGLVKPSETLSLTCTVSGFSLIGYDLNWIRQPPGKGLEWIGIIWGDGTTDYNSAVKSRVTISKDTSKNQFSLKLSSVTAADTAVYYCARGGYWYATSYYFDYWGQGTLVTVSS VL: DIQMTQSPSSLSASVGDRVTITCRASQSISNNLNWYQQKPGKAPKLLIYYTSRFHSGVPSRFSGSGSGTDFTFTISSLQPEDIATYYCQQEHTLPYTFGQGTKLEIK | 525 |  |  | 0.00937 |  | 60.2 |  |  |  | 0.0727 | 0.17
